Source: PMC5127641 (2016)

T1: Bcl-w, biotinylated (C-terminal avi-6His) (human, UniProt Q92843 1-193, biotin (enzymatic, BirA))
T1 chain: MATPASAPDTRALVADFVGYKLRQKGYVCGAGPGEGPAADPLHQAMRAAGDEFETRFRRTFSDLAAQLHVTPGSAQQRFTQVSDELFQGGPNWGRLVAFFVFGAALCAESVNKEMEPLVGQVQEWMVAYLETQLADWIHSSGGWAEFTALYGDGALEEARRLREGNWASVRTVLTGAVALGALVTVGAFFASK

T2: Mcl-1, biotinylated (C-terminal avi-6His) (human, UniProt Q07820 1-350, biotin (enzymatic, BirA))
T2 chain: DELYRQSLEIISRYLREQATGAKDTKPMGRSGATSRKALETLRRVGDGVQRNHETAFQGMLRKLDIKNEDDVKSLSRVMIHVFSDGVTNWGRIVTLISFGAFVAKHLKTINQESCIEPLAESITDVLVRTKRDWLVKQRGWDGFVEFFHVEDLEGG

T3: Bfl-1, biotinylated (C-terminal avi-6His) (human, UniProt Q16548 1-175, biotin (enzymatic, BirA))
T3 chain: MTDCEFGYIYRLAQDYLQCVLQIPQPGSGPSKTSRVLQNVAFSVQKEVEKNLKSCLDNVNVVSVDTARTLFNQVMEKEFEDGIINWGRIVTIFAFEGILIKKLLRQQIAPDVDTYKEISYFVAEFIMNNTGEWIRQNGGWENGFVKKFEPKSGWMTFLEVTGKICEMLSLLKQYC

T4: Bcl-B, biotinylated (C-terminal avi-6His) (human, UniProt Q9HD36 1-204, biotin (enzymatic, BirA))
T4 chain: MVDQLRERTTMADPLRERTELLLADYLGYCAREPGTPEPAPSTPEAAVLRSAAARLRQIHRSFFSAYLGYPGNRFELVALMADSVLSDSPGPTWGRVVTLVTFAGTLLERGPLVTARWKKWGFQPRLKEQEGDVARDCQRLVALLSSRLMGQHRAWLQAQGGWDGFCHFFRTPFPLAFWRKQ


Experiments:
Test in all cases: BLI
[1] = biological target: T1, Bcl-w, biotinylated (C-terminal …)
[2] = biological target: T2, Mcl-1, biotinylated (C-terminal …)
[3] = biological target: T3, Bfl-1, biotinylated (C-terminal …)
[4] = biological target: Bcl-xL, biotinylated (C-terminal avi-6His) (human, UniProt Q07817-1 1-233, biotin (enzymatic, BirA))
[5] = biological target: T4, Bcl-B, biotinylated (C-terminal …)
[6] = biological target: Bcl-2, biotinylated (C-terminal avi-6His) (human, UniProt P10415 1-239, biotin (enzymatic, BirA))
Chain of Bcl-2, biotinylated (C-terminal avi-6His) (P10415 1-207): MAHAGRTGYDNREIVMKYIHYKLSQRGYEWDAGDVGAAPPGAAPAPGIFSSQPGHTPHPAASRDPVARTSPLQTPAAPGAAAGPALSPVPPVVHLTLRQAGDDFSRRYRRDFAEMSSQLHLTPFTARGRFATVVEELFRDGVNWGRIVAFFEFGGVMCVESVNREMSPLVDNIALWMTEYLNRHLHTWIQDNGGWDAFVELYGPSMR

Chain of Bcl-xL, biotinylated (C-terminal avi-6His) (Q07817 1-209): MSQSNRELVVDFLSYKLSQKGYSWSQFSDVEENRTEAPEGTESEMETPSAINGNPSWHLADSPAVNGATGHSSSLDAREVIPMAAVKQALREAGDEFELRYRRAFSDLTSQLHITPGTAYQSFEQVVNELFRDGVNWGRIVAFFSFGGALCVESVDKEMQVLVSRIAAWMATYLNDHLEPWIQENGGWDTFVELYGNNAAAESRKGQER

Binder | Kd [1] [nM] | Kd [2] [nM] | Kd [3] [nM] | Kd [4] [nM] | Kd [5] [nM] | Kd [6] [nM]
W-CDP03 (Bcl-w-targeting computationally designed protein) (designed binder) ADPKKVFDEAKDRAENNVRRLKQKLEELYKEARKKDLTQEEREKLKEKYKTAMAAAALAAIGDAFNALLKARKLHKNGQVNEQQLEELARRLQELAKEAFQKAKDYANEFEYKLEY | 8 | 57 | 500 | 7 | 410 | 30
X-CDP07 (Bcl-xL-targeting computationally designed protein) (designed binder) ADPKKVLDKAKDRAENVVRKLKKELEELYKEARKLDLTQEMRDRIRLAAIAARIAAFGDIFHAIMEALEEARKLKKAGLVNSQQLDELKRRLEELDEEAAQRAEKLGKEFELKLEY |  |  | > 50000 |  |  | 4
2-CDP06 (Bcl-2-targeting Computationally Designed Protein) (designed binder) MADPKKVLDKAKDEAENRVRELKQKLEELYKEARKLDLTQEMRQELVDKARAASLQAIGDIFYAILRALAEAEKLKKAGLVNSQQLDELKRRLEELAEEARRKAEKLGDEFRLKLEYG | 1700 | > 50000 | > 50000 | 12000 | > 50000 | 9
B-ECM01 (enriched combinatorial mutant of B-CDP01) (designed binder) ADPKKILDKAKDQVENRVRELKQELERLYKEARKLDLTQEMRRKLHVRYIAAMLKAIAAILNAIAQAENEADKLKKAGLVNSQQLDELRRRLEELTEEAAQKAHDYGREFQLKLEY |  |  | 2400 | 7800 | 80 | 
B-CDP01 (Bcl-B-targeting computationally designed protein) (designed binder) ADPKKVLDKAKDQAENRVRELKQELERLYKEARKLDLTQEMRRKLEWRYIAAMLKAIGDILNAIAQAENEADKLKKAGLVNSQQLDELRRRLEELAKEAARKAHDYGREFQLKLEY | 2000 | 0.46 | 520 | 20 | 8 | 17

Now those with a lower Kd [3], led by results:

Kd [1] [nM] | Kd [2] [nM] | Kd [3] [nM] | Kd [4] [nM] | Kd [5] [nM] | Kd [6] [nM] | Binder
 | 4.6 | 2 | 11 | 100000 |  | F-CDP01 (Bfl-1-targeting computationally designed protein) (designed binder) ADPKKVLDKAKDQAENRVRELKQKLEELYKEARKLDLTQEMRKKLQYAAIGAMLAAIGDILNAIMQAKQEADKLKKAGLVNSQQLDELKRRLEELKEEALRKAHDYGSEFYLKLEY
3800 | 300 | 1.1 | 540 | 4000 |  | F-ECM04 (enriched combinatorial mutant of F-CDP01) (designed binder) ADPKKVLDKAKDQAENRVRELKQKLEELYKEARKLDLTQEMRKKLEVAALGAVLAAHGDILNAIMQAKEEADKLKKAGLVNSQQLDELKRRLEELKEEALRKASDYGKEFHLKRRY
